Here are results for seven molecules from patent US20220017591A1 (AstraZeneca / MedImmune, published 2022).

Holding throughout (assay): cell-based or functional assay
One test concerns the target T1, human RXFP1 (human, UniProt Q9HBX9 1-757).
T1 sequence (looked up): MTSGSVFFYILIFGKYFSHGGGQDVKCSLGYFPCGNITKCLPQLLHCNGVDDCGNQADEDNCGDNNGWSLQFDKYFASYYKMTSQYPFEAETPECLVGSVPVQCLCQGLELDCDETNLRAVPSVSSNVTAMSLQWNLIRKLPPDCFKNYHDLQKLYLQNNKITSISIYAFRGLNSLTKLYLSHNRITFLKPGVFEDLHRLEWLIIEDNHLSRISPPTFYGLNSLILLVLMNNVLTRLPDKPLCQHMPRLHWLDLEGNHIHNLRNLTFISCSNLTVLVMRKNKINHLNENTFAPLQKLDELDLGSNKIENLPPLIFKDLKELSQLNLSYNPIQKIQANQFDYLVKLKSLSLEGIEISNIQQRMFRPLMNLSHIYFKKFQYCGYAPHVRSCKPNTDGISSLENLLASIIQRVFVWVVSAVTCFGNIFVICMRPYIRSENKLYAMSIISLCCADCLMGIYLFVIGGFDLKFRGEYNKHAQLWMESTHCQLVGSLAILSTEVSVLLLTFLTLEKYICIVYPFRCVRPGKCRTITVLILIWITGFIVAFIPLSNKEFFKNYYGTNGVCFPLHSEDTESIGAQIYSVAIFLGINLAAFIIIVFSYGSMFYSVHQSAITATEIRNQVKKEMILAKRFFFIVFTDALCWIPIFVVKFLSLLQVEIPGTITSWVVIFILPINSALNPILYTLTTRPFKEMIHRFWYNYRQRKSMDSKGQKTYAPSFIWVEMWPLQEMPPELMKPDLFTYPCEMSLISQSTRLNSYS

Another test concerns the target T2, mouse RXFP1 (mouse, UniProt Q6R6I7 1-758).
T2 sequence (looked up): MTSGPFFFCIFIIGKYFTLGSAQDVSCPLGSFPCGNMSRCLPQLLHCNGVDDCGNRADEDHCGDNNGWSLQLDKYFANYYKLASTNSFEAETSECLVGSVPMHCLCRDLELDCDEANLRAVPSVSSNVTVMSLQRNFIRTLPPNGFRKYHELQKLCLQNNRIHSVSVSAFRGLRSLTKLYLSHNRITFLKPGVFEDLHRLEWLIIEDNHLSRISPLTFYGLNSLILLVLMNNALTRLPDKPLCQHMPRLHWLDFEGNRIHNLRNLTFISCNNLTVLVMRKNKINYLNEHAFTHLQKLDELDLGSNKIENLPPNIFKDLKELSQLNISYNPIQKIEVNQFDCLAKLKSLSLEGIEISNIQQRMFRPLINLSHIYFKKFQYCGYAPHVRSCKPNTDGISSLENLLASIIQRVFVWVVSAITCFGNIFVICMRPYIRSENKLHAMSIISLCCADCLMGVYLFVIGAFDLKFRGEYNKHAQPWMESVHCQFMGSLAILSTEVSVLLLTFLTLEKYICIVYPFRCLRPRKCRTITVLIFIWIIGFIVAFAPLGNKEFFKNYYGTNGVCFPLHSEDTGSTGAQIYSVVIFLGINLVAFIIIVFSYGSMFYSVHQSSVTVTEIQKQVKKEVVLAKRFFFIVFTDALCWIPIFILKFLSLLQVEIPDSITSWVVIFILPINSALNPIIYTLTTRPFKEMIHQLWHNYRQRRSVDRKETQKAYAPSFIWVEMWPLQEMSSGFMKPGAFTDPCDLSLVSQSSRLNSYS

Another test addresses human RXFP2 (human, UniProt Q8WXD0 1-754).

Sequence of human RXFP2 (Q8WXD0 whole entry): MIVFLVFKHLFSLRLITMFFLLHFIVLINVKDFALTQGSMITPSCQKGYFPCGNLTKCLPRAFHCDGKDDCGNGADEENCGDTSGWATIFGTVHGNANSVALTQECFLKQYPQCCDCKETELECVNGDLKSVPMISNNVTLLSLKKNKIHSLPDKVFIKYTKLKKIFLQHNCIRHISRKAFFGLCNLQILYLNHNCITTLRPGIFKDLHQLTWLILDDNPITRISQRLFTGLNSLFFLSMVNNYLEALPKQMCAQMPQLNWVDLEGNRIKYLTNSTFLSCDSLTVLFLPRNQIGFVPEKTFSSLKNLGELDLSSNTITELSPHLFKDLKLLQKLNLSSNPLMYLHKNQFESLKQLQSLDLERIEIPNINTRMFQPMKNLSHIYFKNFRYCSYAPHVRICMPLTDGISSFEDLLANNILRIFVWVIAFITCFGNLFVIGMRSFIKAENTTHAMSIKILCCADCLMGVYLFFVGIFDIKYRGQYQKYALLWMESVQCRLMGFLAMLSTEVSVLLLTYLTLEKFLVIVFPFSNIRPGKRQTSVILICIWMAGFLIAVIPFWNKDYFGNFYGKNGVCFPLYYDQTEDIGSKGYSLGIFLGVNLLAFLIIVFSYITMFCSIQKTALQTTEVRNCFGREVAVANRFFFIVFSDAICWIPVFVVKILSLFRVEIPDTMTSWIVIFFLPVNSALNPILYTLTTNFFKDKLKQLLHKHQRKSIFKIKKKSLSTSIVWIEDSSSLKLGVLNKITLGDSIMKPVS

B1: RELAX0085 (Fc fusion)
chain 1: DKTHTCPPCPAPEFEGGPSVFLFPPKPKDTLMISRTPEVTCVVVDVSHEDPEVKFNWYVDGVEVHNAKTKPREEQYNSTYRVVSVLTVLHQDWLNGKEYKCKVSNKALPASIEKTISKAKGQPREPQVYTLPPCREEMTKNQVSLWCLVKGFYPSDIAVEWESNGQPENNYKTTPPVLDSDGSFFLYSKLTVDKSRWQQGNVFSCSVMHEALHNHYTQKSLSLSPGGGGGSGGGGSGGGGSGGGGGSQLYSALANKCCHVGCTKRSLARFC
chain 2: DKTHTCPPCPAPEFEGGPSVFLFPPKPKDTLMISRTPEVTCVVVDVSHEDPEVKFNWYVDGVEVHNAKTKPREEQYNSTYRVVSVLTVLHQDWLNGKEYKCKVSNKALPASIEKTISKAKGQPREPQVCTLPPSREEMTKNQVSLSCAVKGFYPSDIAVEWESNGQPENNYKTTPPVLDSDGSFFLVSKLTVDKSRWQQGNVFSCSVMHEALHNHYTQKSLSLSPGAPAPAPAPAPAPAPAPAPAGSSWMEEVIKLCGRELVRAQIAICGMSTWS
For B1, the “EC50 hRXFP1 (M), cAMP assay” value with human RXFP1 is 6.37e-11 M. The “EC50 mRXFP1 (M), cAMP assay” value in the test with mouse RXFP1 was determined as 3.09e-11 M. Moreover, the “EC50 hRXFP2 (M), cAMP assay” value with human RXFP2 turned out to be 4.67e-08 M.

B2: RELAX0107 (Fc fusion)
chain 1: DKTHTCPPCPAPEFEGGPSVFLFPPKPKDTLMISRTPEVTCVVVDVSHEDPEVKFNWYVDGVEVHNAKTKPREEQYNSTYRVVSVLTVLHQDWLNGKEYKCKVSNKALPASIEKTISKAKGQPREPQVYTLPPCREEMTKNQVSLWCLVKGFYPSDIAVEWESNGQPENNYKTTPPVLDSDGSFFLYSKLTVDKSRWQQGNVFSCSVMHEALHNHYTQKSLSLSPGGGGGGSQLYSALANKCCHVGCTKRSLARFC
chain 2: B1 chain 2
For the molecule B2, the “EC50 hRXFP1 (M), cAMP assay” value with human RXFP1 came out at 8.09e-11 M. Also, the “EC50 mRXFP1 (M), cAMP assay” value with mouse RXFP1 was found to be 3.87e-11 M. Besides, the “EC50 hRXFP2 (M), cAMP assay” value in the test with human RXFP2 came out at 1.22e-07 M.

B3: RELAX0087 (Fc fusion)
chain 1: B1 chain 1
chain 2: DKTHTCPPCPAPEFEGGPSVFLFPPKPKDTLMISRTPEVTCVVVDVSHEDPEVKFNWYVDGVEVHNAKTKPREEQYNSTYRVVSVLTVLHQDWLNGKEYKCKVSNKALPASIEKTISKAKGQPREPQVCTLPPSREEMTKNQVSLSCAVKGFYPSDIAVEWESNGQPENNYKTTPPVLDSDGSFFLVSKLTVDKSRWQQGNVFSCSVMHEALHNHYTQKSLSLSPGGGGGSGGGGSGGGGGSSWMEEVIKLCGRELVRAQIAICGMSTWS
B3: the “EC50 hRXFP1 (M), cAMP assay” value in the test with human RXFP1 amounted to 4.89e-11 M. In addition, the “EC50 mRXFP1 (M), cAMP assay” value in the test with mouse RXFP1 turned out to be 3.48e-11 M. Besides, the “EC50 hRXFP2 (M), cAMP assay” value with human RXFP2 came out at 3.63e-08 M.

B4: RELAX0106 (Fc fusion)
chain 1: DKTHTCPPCPAPEFEGGPSVFLFPPKPKDTLMISRTPEVTCVVVDVSHEDPEVKFNWYVDGVEVHNAKTKPREEQYNSTYRVVSVLTVLHQDWLNGKEYKCKVSNKALPASIEKTISKAKGQPREPQVYTLPPCREEMTKNQVSLWCLVKGFYPSDIAVEWESNGQPENNYKTTPPVLDSDGSFFLYSKLTVDKSRWQQGNVFSCSVMHEALHNHYTQKSLSLSPGGGGGSGGGGGSQLYSALANKCCHVGCTKRSLARFC
chain 2: B1 chain 2
Turning to B4, the “EC50 hRXFP1 (M), cAMP assay” value with human RXFP1 is 6.96e-11 M. Further, the “EC50 mRXFP1 (M), cAMP assay” value in the test with mouse RXFP1 was 1.98e-11 M. The “EC50 hRXFP2 (M), cAMP assay” value in the test with human RXFP2 was found to be 4.94e-08 M.

B5: RELAX0105 (Fc fusion)
chain 1: DKTHTCPPCPAPEFEGGPSVFLFPPKPKDTLMISRTPEVTCVVVDVSHEDPEVKFNWYVDGVEVHNAKTKPREEQYNSTYRVVSVLTVLHQDWLNGKEYKCKVSNKALPASIEKTISKAKGQPREPQVYTLPPCREEMTKNQVSLWCLVKGFYPSDIAVEWESNGQPENNYKTTPPVLDSDGSFFLYSKLTVDKSRWQQGNVFSCSVMHEALHNHYTQKSLSLSPGGGGGSGGGGSGGGGGSQLYSALANKCCHVGCTKRSLARFC
chain 2: B1 chain 2
Consider B5, for which the “EC50 hRXFP1 (M), cAMP assay” value with human RXFP1 was 7.12e-11 M. For the same molecule, the “EC50 mRXFP1 (M), cAMP assay” value in the test with mouse RXFP1 was 1.49e-11 M. Further, the “EC50 hRXFP2 (M), cAMP assay” value with human RXFP2 stood at 3.33e-08 M.

B6: RELAX0084 (Fc fusion)
chain 1: DKTHTCPPCPAPEFEGGPSVFLFPPKPKDTLMISRTPEVTCVVVDVSHEDPEVKFNWYVDGVEVHNAKTKPREEQYNSTYRVVSVLTVLHQDWLNGKEYKCKVSNKALPASIEKTISKAKGQPREPQVYTLPPCREEMTKNQVSLWCLVKGFYPSDIAVEWESNGQPENNYKTTPPVLDSDGSFFLYSKLTVDKSRWQQGNVFSCSVMHEALHNHYTQKSLSLSPGAPAPAPAPAPAPAPAPAPAGSQLYSALANKCCHVGCTKRSLARFC
chain 2: DKTHTCPPCPAPEFEGGPSVFLFPPKPKDTLMISRTPEVTCVVVDVSHEDPEVKFNWYVDGVEVHNAKTKPREEQYNSTYRVVSVLTVLHQDWLNGKEYKCKVSNKALPASIEKTISKAKGQPREPQVCTLPPSREEMTKNQVSLSCAVKGFYPSDIAVEWESNGQPENNYKTTPPVLDSDGSFFLVSKLTVDKSRWQQGNVFSCSVMHEALHNHYTQKSLSLSPGGGGGSGGGGSGGGGSGGGGGSSWMEEVIKLCGRELVRAQIAICGMSTWS
For B6, the “EC50 hRXFP1 (M), cAMP assay” value with human RXFP1 came to 5.34e-11 M. In addition, the “EC50 mRXFP1 (M), cAMP assay” value with mouse RXFP1 was found to be 3.48e-11 M. Also, the “EC50 hRXFP2 (M), cAMP assay” value with human RXFP2 was determined as 1.2e-08 M.

B7: RELAX0086 (Fc fusion)
chain 1: B5 chain 1
chain 2: B6 chain 2
Consider B7, for which the “EC50 hRXFP1 (M), cAMP assay” value in the test with human RXFP1 is 4.49e-11 M. The “EC50 mRXFP1 (M), cAMP assay” value with mouse RXFP1 turned out to be 2.68e-11 M. Further, in the test with human RXFP2, the “EC50 hRXFP2 (M), cAMP assay” value was 4.88e-08 M.
